Read-outs that look alike come from different tables or passages of the source.
Tests used:
Experiment in all cases: EMSA
[1] = molecular target: T1, HU alpha-beta heterodimer (Escherichia coli, UniProt P0ACF0;P0ACF4 1-90;1-90)
[2] = molecular target: T1, HU alpha-beta heterodimer; remark: listed apart in the source
[3] = molecular target: T1, HU alpha-beta heterodimer; remark: listed apart in the source
[4] = molecular target: T1, HU alpha-beta heterodimer; remark: listed apart in the source
[5] = molecular target: T1, HU alpha-beta heterodimer; remark: listed apart in the source
[6] = molecular target: T1, HU alpha-beta heterodimer; remark: listed apart in the source
[7] = molecular target: T1, HU alpha-beta heterodimer; remark: listed apart in the source
[8] = molecular target: T1, HU alpha-beta heterodimer; remark: listed apart in the source
[9] = molecular target: T1, HU alpha-beta heterodimer; remark: listed apart in the source
[10] = molecular target: T1, HU alpha-beta heterodimer; remark: listed apart in the source

T1 sequence (P0ACF0 whole entry, chain 1 of 2): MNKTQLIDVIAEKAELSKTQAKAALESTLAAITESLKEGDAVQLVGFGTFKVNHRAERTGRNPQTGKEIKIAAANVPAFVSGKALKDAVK
T1 sequence (P0ACF4 whole entry, chain 2 of 2): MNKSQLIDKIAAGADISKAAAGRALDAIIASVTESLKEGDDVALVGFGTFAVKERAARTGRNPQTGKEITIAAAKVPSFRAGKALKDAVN

B1: ssDNA D-48 (ssDNA)
DNA: AGTCTAGAGTGCAGTTGAGTCCTTGCTACGACGGATCCCTTAGGTCAG
With B1 the Kd [1] was 41 nM.

B2: mismatch 4 (dsDNA)
DNA 1: AGTCTAGACTGCAGTTGAGTCCTTGCTAGGACGGATCCCT
DNA 2: AGGGATCCGTCCTAGCAAATGTTCAACTGCAGTCTAGACT
For B2, the Kd [2] was 21 nM.

B3: nicked 40 (dsDNA)
DNA 1: AGTCTAGAGTGCAGTTGAGTCCTTGCTACGACGGATCCCT
DNA 2: AGGGATCCGTCGTAGCAAGG
DNA 3: ACTCAACTGCACTCTAGACT
In the case of B3, the Kd [3] is reported as 3 nM.

B4: mismatch 10 (dsDNA)
DNA 1: AGTCTAGACTGCAGTTGAGTCCTTGCTAGGACGGATCCCT
DNA 2: AGGGATCCGTCCTAGTTGATGTAGCACTGCAGTCTAGACT
With B4 the Kd [4] was 6 nM.

B5: mismatch 6 (dsDNA)
DNA 1: AGTCTAGACTGCAGTTGAGTCCTTGCTAGGACGGATCCCT
DNA 2: AGGGATCCGTCCTAGCAGATGTACAACTGCAGTCTAGACT
B5 showed a Kd [4] of 6 nM.

B6: dsDNA 40 (dsDNA)
DNA 1: AGTCTAGAGTGCAGTTGAGTCCTTGCTACGACGGATCCCT
DNA 2: AGGGATCCGTCGTAGCAAGGACTCAACTGCACTCTAGACT
Work on B6 yielded a Kd [5] of 7 nM.

B7: ssDNA D-40 (ssDNA)
DNA: AGTCTAGAGTGCAGTTGAGTCCTTGCTACGACGGATCCCT
With B7 the Kd [6] was 54 nM.

B8: mismatch 8 (dsDNA)
DNA 1: AGTCTAGACTGCAGTTGAGTCCTTGCTAGGACGGATCCCT
DNA 2: AGGGATCCGTCCTAGCTGATGTAGAACTGCAGTCTAGACT
Work on B8 yielded a Kd [4] of 6 nM.

B9: ssDNA D-44 (ssDNA)
DNA: AGTCTAGAGTGCAGTTGAGTCCTTGCTACGACGGATCCCTTAGG
In the case of B9, the Kd [7] is reported as 40 nM.

B10: ssDNA D-28 (ssDNA)
DNA: AGTCTAGAGTGCAGTTGAGTCCTTGCTA
B10 gave a Kd [8] of 755 nM.

B11: ssDNA D-36 (ssDNA)
DNA: AGTCTAGAGTGCAGTTGAGTCCTTGCTACGACGGAT
Binder B11 has a Kd [1] of 80 nM.

B12: ssDNA D-32 (ssDNA)
DNA: AGTCTAGAGTGCAGTTGAGTCCTTGCTACGAC
Work on B12 yielded a Kd [9] of 114 nM.

B13: ssDNA D-24 (ssDNA)
DNA: AGTCTAGAGTGCAGTTGAGTCCTT
B13: binds [10].

— PMC2241890
